The values that follow come from PMC5148612, “Mechanism of cargo-directed Atg8 conjugation during selective autophagy” (eLife, 2016).

Common to all, as to details: both partners purified
For assay [1], the target named is T1, Atg5-mCherry-Atg16 (1–46) complex (S. cerevisiae, UniProt Q12380 1-294; Q03818 1-46).
T1 construct: Atg5, S. cerevisiae; Atg16, S. cerevisiae, first 46 amino acids; a TEV site follows the His tag of Atg5; no cleavage is described; source: E. coli Rosetta pLysS, co-expressed, purified (Ni-NTA, Superdex 200); not shown: mCherry, C-terminal, kept
T1 sequence (looked up) 1: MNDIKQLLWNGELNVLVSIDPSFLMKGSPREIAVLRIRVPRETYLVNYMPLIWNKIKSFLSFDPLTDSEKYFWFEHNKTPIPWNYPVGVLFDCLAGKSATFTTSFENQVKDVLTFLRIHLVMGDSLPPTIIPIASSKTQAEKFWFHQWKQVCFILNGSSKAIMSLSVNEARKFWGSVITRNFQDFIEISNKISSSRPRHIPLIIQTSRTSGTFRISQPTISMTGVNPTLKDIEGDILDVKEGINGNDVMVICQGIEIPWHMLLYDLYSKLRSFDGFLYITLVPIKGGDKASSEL
T1 sequence (looked up) 2: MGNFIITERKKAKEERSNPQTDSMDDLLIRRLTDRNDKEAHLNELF
Kind of assay: microscopy-based protein-protein interaction assay on beads; glutathione beads coated with GST-fused proteins at 30 µM, Atg5-mCherry-Atg16 (1–46) 18 µM, equilibrium (Figure 3B, C).

The target in another assay is T2, Atg5-Atg16 (1–46) (S. cerevisiae, UniProt Q12380 1-294; Q03818 1-46).
T2 construct: Atg5, S. cerevisiae; Atg16, S. cerevisiae, first 46 amino acids; the His tag of Atg5 is followed by a TEV site; also called Atg5 stabilized with the N-terminal helix of Atg16; Atg5-Atg16 (1–46) wild type; source: E. coli, co-expressed and purified in complex
T2 sequence 1: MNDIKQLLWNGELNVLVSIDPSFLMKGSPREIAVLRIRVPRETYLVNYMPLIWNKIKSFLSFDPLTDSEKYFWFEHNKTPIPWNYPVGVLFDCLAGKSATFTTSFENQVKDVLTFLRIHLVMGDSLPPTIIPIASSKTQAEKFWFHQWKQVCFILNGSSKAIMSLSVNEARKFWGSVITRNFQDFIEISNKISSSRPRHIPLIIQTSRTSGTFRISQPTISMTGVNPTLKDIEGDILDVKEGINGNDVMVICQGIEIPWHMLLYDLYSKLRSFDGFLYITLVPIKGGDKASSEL
T2 sequence 2: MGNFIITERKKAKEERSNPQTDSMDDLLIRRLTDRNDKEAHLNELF
As to the kind of experiment: pull-down; GST-fused bait 20 µM and GST-free prey 5 µM with glutathione Sepharose 4B, 1 hr at 4°C; washed with 25 mM HEPES pH 7.5, 150 mM NaCl, 1 mM DTT; anti-Atg5 Western blot (Figure 2E, Figure 3—figure supplement 1, Figure 4C).

The target of the next assay is T3, Atg5-Atg16 complex (S. cerevisiae, UniProt Q12380 1-294; Q03818 1-150).
T3 construct: Atg5, S. cerevisiae; Atg16, S. cerevisiae; source: E. coli Rosetta pLysS; Atg5 cleaved from GST mixed 1:1 with purified Atg16, purified by size exclusion chromatography; not shown: GST, N-terminal, cleaved
T3 sequence (looked up) 1: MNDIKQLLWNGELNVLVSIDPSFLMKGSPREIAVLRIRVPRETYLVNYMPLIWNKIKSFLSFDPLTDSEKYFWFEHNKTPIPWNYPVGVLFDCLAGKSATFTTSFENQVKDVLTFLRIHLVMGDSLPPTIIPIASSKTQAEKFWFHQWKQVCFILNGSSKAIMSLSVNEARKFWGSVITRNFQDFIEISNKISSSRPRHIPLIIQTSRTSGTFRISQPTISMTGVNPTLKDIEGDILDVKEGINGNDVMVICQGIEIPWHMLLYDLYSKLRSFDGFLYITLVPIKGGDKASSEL
T3 sequence (looked up) 2: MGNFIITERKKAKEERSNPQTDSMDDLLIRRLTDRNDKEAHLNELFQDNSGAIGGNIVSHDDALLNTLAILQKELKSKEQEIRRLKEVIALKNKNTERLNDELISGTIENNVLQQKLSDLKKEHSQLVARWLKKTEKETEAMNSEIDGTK
The description is as above.

Another assay addresses T4, GFP-Atg8∆R117 (S. cerevisiae, UniProt P38182 1-116).
T4 construct: Atg8, S. cerevisiae, without its last residue R117; also called meGFP-Atg8∆R117; 6xHis-meGFP-Atg8∆R117; source: E. coli Rosetta pLysS, purified; not shown: meGFP, N-terminal, kept
T4 sequence (looked up): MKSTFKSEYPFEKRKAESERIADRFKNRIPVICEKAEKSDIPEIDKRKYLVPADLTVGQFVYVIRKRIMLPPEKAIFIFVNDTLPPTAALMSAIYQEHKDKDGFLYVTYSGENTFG
Kind of assay: microscopy-based competition assay on beads; beads coated with GST-Atg19(365–415) at 30 µM, Atg5-mCherry-Atg16 (1–46) 18 µM; then GFP-Atg8∆R117 18 µM (1x), then Atg8 400 µM (22x); 25 mM HEPES pH 7.5, 150 mM NaCl, 1 mM DTT (Figure 3E, F).

The target in the next assay is T5, GST-Atg19 (S. cerevisiae, UniProt P35193 1-415).
T5 construct: Atg19, S. cerevisiae cargo receptor; also called full length GST-Atg19; Atg19 full length; source: E. coli Rosetta pLysS, purified; not shown: GST, N-terminal, kept
T5 sequence (looked up): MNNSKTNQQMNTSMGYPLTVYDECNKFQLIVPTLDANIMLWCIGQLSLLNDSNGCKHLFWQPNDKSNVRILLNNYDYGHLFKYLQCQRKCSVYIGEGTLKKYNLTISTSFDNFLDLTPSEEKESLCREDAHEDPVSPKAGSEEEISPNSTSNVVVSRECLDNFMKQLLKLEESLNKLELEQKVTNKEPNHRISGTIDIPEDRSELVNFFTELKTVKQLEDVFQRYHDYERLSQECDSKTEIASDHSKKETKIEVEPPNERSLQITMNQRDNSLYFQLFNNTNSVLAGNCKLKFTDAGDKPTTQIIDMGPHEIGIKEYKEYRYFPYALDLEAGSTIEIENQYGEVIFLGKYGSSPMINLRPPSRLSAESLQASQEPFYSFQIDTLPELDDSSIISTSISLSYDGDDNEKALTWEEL
Kind of assay: pull-down; GST-fused bait 20 µM and GST-free prey 5 µM with glutathione Sepharose 4B, 1 hr at 4°C; washed with 25 mM HEPES pH 7.5, 150 mM NaCl, 1 mM DTT; anti-Atg5 Western blot (Figure 2E, Figure 3—figure supplement 1, Figure 4C).

For the next assay, the target named is T6, Atg19 (S. cerevisiae, UniProt P35193 1-415).
T6 construct: Atg19, S. cerevisiae; printed without a tag; also called Atg19 wild type
T6 sequence (looked up): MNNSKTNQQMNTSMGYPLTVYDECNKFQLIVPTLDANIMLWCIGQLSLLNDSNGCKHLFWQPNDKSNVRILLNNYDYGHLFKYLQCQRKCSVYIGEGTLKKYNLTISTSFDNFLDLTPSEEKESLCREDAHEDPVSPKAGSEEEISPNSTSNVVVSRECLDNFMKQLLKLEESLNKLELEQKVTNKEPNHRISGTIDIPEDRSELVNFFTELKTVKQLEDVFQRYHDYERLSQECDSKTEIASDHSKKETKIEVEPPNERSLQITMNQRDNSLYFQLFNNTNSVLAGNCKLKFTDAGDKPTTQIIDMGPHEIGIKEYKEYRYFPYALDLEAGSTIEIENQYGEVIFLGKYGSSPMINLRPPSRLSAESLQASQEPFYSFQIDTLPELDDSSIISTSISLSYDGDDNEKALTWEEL
Kind of assay: SEC; Atg19 and Atg5-Atg16 (1–46) premixed at 55 µM, concentrated to 580 µM, Superose 6 PC 3.2/30, 25 mM HEPES pH 7.5, 150 mM NaCl, 1 mM DTT; fractions on Coomassie gels.

B1: GST-Atg19(365–415) (domain or fragment, S. cerevisiae, UniProt P35193 365-415, looked up)
chain: SAESLQASQEPFYSFQIDTLPELDDSSIISTSISLSYDGDDNEKALTWEEL
notes: Atg19, S. cerevisiae, C-terminal domain; also called Atg19 C-terminal domain; Atg19 CTD (365-415); source: E. coli Rosetta pLysS, purified; not shown: GST, N-terminal, kept
For B1, the binding result (in assay [1]; with Atg5-Atg16 (1–46); with Atg5-Atg16 complex; with GFP-Atg8∆R117) was “binds” each time.

B2: Atg5(K137E)-Atg16 (1–46) (complex, S. cerevisiae)
chain 1: MNDIKQLLWNGELNVLVSIDPSFLMKGSPREIAVLRIRVPRETYLVNYMPLIWNKIKSFLSFDPLTDSEKYFWFEHNKTPIPWNYPVGVLFDCLAGKSATFTTSFENQVKDVLTFLRIHLVMGDSLPPTIIPIASSETQAEKFWFHQWKQVCFILNGSSKAIMSLSVNEARKFWGSVITRNFQDFIEISNKISSSRPRHIPLIIQTSRTSGTFRISQPTISMTGVNPTLKDIEGDILDVKEGINGNDVMVICQGIEIPWHMLLYDLYSKLRSFDGFLYITLVPIKGGDKASSEL
chain 2: MGNFIITERKKAKEERSNPQTDSMDDLLIRRLTDRNDKEAHLNELF
notes: Atg5, S. cerevisiae; Atg16, S. cerevisiae, first 46 amino acids; source: E. coli, co-expressed and purified in complex
Take B2: in the assay with GST-Atg19, the binding result was “binds”.

B3: Atg5-Atg16 (1–46) for analytical size exclusion chromatography (complex, S. cerevisiae)
chain 1: MNDIKQLLWNGELNVLVSIDPSFLMKGSPREIAVLRIRVPRETYLVNYMPLIWNKIKSFLSFDPLTDSEKYFWFEHNKTPIPWNYPVGVLFDCLAGKSATFTTSFENQVKDVLTFLRIHLVMGDSLPPTIIPIASSKTQAEKFWFHQWKQVCFILNGSSKAIMSLSVNEARKFWGSVITRNFQDFIEISNKISSSRPRHIPLIIQTSRTSGTFRISQPTISMTGVNPTLKDIEGDILDVKEGINGNDVMVICQGIEIPWHMLLYDLYSKLRSFDGFLYITLVPIKGGDKASSEL
chain 2: MGNFIITERKKAKEERSNPQTDSMDDLLIRRLTDRNDKEAHLNELF
notes: Atg5, S. cerevisiae; Atg16, S. cerevisiae, first 46 amino acids; source: E. coli Rosetta pLySS, co-expressed, purified (glutathione beads, thrombin, Superdex 200); not shown: GST, N-terminal, cleaved
Regarding B3, the binding result with Atg19 is “binds”.

B4: Atg5(R208E)-Atg16 (1–46) (complex, S. cerevisiae)
chain 1: MNDIKQLLWNGELNVLVSIDPSFLMKGSPREIAVLRIRVPRETYLVNYMPLIWNKIKSFLSFDPLTDSEKYFWFEHNKTPIPWNYPVGVLFDCLAGKSATFTTSFENQVKDVLTFLRIHLVMGDSLPPTIIPIASSKTQAEKFWFHQWKQVCFILNGSSKAIMSLSVNEARKFWGSVITRNFQDFIEISNKISSSRPRHIPLIIQTSETSGTFRISQPTISMTGVNPTLKDIEGDILDVKEGINGNDVMVICQGIEIPWHMLLYDLYSKLRSFDGFLYITLVPIKGGDKASSEL
chain 2: MGNFIITERKKAKEERSNPQTDSMDDLLIRRLTDRNDKEAHLNELF
notes: as for B2
For the molecule B4, the binding result with GST-Atg19 is given as “binds”.
